Measurements from US20170059576.

Test system: Immunoglobulin E (IgE), P01854-1
Details: 5'-hexylamine coupled Sulfo-SBED (phenyl azide, biotin); 365 nm photo-crosslinking, Western blot; marginal at highest protein concentration only

Chain of Immunoglobulin E (IgE), P01854-1 (P01854 other isoform, or with tags, fused parts or gaps): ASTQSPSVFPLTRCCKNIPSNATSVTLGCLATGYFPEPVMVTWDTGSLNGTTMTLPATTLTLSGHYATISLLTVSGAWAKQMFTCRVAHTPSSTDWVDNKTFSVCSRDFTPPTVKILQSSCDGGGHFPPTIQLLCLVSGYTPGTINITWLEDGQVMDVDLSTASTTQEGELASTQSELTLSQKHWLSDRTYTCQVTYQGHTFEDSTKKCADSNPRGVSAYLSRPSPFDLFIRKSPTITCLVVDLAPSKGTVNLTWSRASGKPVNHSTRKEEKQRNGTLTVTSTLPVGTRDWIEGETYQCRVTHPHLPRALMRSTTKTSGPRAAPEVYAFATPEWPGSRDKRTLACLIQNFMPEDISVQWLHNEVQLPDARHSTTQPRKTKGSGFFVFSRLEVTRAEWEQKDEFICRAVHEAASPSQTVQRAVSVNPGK

Sequence “CCAGCTGGCTCACCGTTCGCGCTAGGGCTTTCCGTCG [ABAL-D17.4sc]” has a binding signal (fold lower cross-linking than ABAL-D17.4) of 17.
